The results in this text go back to article doi:10.1101/2021.10.29.466387 (bioRxiv, 2021).

Where “and” joins values, the source holds several entries; their conditions need not be identical. Identical values can stand only once.

Data set [1] concerns the molecule itself. Briefly: native gel or EMSA. (In general: A gel shift assay detects complexes by their altered migration in electrophoresis.)
Data set [2] deals with the molecule itself. Briefly: SDS-PAGE of samples folded in detergent micelles.

B1: OmpF (natural protein)
chain: AEIYNKDGNKVDLYGKAVGLHYFSKGNGENSYGGNGDMTYARLGFKGETQINSDLTGYGQWEYNFQGNNSEGADAQTGNKTRLAFAGLKYADVGSFDYGRNYGVVYDALGYTDMLPEFGGDTAYSDDFFVGRVGGVATYRNSNFFGLVDGLNFAVQYLGKNERDTARRSNGDGVGGSISYEYEGFGIVGAYGAADRTNLQEAQPLGNGKKAEQWATGLKYDANNIYLAANYGETRNATPITNKFTNTSGFANKTQDVLLVAQYQFDFGLRPSIAYTKSKAKDVEGIGDVDLVNYFEVGATYYFNKNMSTYVDYIINQIDSDNKLGVGSDDTVAVGIVYQF
Turning to B1, in data set [1], the stoichiometry N (usually the number of molecules, sites or subunits per partner or assembly) was 3 and 2.

B2: ^35S-labelled OmpC (natural protein)
chain: MKVKVLSLLVPALLVAGAANAAEVYNKDGNKLDLYGKVDGLHYFSDNKDVDGDQTYMRLGFKGETQVTDQLTGYGQWEYQIQGNSAENENNSWTRVAFAGLKFQDVGSFDYGRNYGVVYDVTSWTDVLPEFGGDTYGSDNFMQQRGNGFATYRNTDFFGLVDGLNFAVQYQGKNGNPSGEGFTSGVTNNGRDALRQNGDGVGGSITYDYEGFGIGGAISSSKRTDAQNTAAYIGNGDRAETYTGGLKYDANNIYLAAQYTQTYNATRVGSLGWANKAQNFEAVAQYQFDFGLRPSLAYLQSKGKNLGRGYDDEDILKYVDVGATYYFNKNMSTYVDYKINLLDDNQFTRDAGINTDNIVALGLVYQF
modifications: ^35S-methionine label
On to B2, for which, in data set [1], the “stoichiometry N” value came out at 3.

B3: ^35S-labelled OmpC(Y286A) (natural protein)
chain: MKVKVLSLLVPALLVAGAANAAEVYNKDGNKLDLYGKVDGLHYFSDNKDVDGDQTYMRLGFKGETQVTDQLTGYGQWEYQIQGNSAENENNSWTRVAFAGLKFQDVGSFDYGRNYGVVYDVTSWTDVLPEFGGDTYGSDNFMQQRGNGFATYRNTDFFGLVDGLNFAVQYQGKNGNPSGEGFTSGVTNNGRDALRQNGDGVGGSITYDYEGFGIGGAISSSKRTDAQNTAAYIGNGDRAETYTGGLKYDANNIYLAAQYTQTYNATRVGSLGWANKAQNFEAVAQAQFDFGLRPSLAYLQSKGKNLGRGYDDEDILKYVDVGATYYFNKNMSTYVDYKINLLDDNQFTRDAGINTDNIVALGLVYQF
modifications: ^35S-methionine label
Consider B3, for which the “stoichiometry N” value in data set [1] amounted to 3.

B4: FLAG-OmpC (natural protein)
chain: AEVYNKDGNKLDLYGKVDGLHYFSDNKDVDGDQTYMRLGFKGETQVTDQLTGYGQWEYQIQGNSAENENNSWTRVAFAGLKFQDVGSFDYGRNYGVVYDVTSWTDVLPEFGGDTYGSDNFMQQRGNGFATYRNTDFFGLVDGLNFAVQYQGKNGNPSGEGFTSGVTNNGRDALRQNGDGVGGSITYDYEGFGIGGAISSSKRTDAQNTAAYIGNGDRAETYTGGLKYDANNIYLAAQYTQTYNATRVGSLGWANKAQNFEAVAQYQFDFGLRPSLAYLQSKGKNLGRGYDDEDILKYVDVGATYYFNKNMSTYVDYKINLLDDNQFTRDAGINTDNIVALGLVYQF
With B4, in data set [1], the “stoichiometry N” value was 2 and 3.

B5: OmpC-His6 (natural protein)
chain: AEVYNKDGNKLDLYGKVDGLHYFSDNKDVDGDQTYMRLGFKGETQVTDQLTGYGQWEYQIQGNSAENENNSWTRVAFAGLKFQDVGSFDYGRNYGVVYDVTSWTDVLPEFGGDTYGSDNFMQQRGNGFATYRNTDFFGLVDGLNFAVQYQGKNGNPSGEGFTSGVTNNGRDALRQNGDGVGGSITYDYEGFGIGGAISSSKRTDAQNTAAYIGNGDRAETYTGGLKYDANNIYLAAQYTQTYNATRVGSLGWANKAQNFEAVAQYQFDFGLRPSLAYLQSKGKNLGRGYDDEDILKYVDVGATYYFNKNMSTYVDYKINLLDDNQFTRDAGINTDNIVALGLVYQF
Turning to B5, in data set [2], the “stoichiometry N” value came to 3.
